Results published in article PMC3462767, “Engineering a Disulfide Bond in the Lid Hinge Region of Rhizopus chinensis Lipase: Increased Thermostability and Altered Acyl Chain Length Specificity” (PLoS ONE, 2012).

Key:
[1] = tested on: CC(=O)Oc1ccc([N+](=O)[O-])cc1; assay: purified protein; settings: free enzyme; emulsified substrate
[2] = tested on: CCCCCCCCCCCCCCCC(=O)Oc1ccc([N+](=O)[O-])cc1; assay: purified protein; settings: free enzyme; emulsified substrate
[3] = tested on: CC(=O)Oc1ccc([N+](=O)[O-])cc1; assay: p-nitrophenol release, Lineweaver-Burk; assay type: biochemical, Rhizopus microsporus; settings: RCLCYS, engineered disulfide C95-C214; free enzyme; emulsified substrate
From the text: (§1) p-nitrophenol release, Lineweaver-Burk on RCL (R. chinensis lipase)

[4] = tested on: CCCCCCCCCCCCCCCC(=O)Oc1ccc([N+](=O)[O-])cc1; assay: p-nitrophenol release, Lineweaver-Burk; assay type: biochemical, Rhizopus microsporus; settings: RCLCYS, engineered disulfide C95-C214; free enzyme; emulsified substrate
From the text: as §1

Work on “RCL (R. chinensis lipase) (Rhizopus microsporus var. chinensis)” yielded a Km [1] of 295 ± 6 µM, a kcat [1] of 17.7 ± 0.2 s⁻¹ and a Km [2] of 304 ± 7 µM. The kcat [2] was 18.9 ± 0.4 s⁻¹.
With “RCL (R. chinensis lipase) (Rhizopus microsporus var. chinensis; F215C/F334C)” the Km [3] was 298 ± 8 µM, the kcat [3] was 17.3 ± 0.2 s⁻¹ and the Km [4] was 450 ± 6 µM. It also gave a kcat [4] of 18.4 ± 0.2 s⁻¹.
